Results: paper PMC11608337 (Nature Communications, 2024)

T1: RING domain of IRF2BP2 (residues 498-578) (UniProt Q7Z5L9 498-578)
T1 sequence (looked up): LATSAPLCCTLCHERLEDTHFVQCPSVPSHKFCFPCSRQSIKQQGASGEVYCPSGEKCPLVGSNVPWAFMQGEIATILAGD

B1: NFAT1 peptide (residues 782-789, RSVLVHAG) (peptide)
peptide: RSVLVHAG
B2: RxSVI motif-containing peptide of ZBTB16 (residues 285-292, RSSVITSA) (peptide)
peptide: RSSVITSA
B3: mouse ZBTB16 peptide (residues 285-292, RGSVITSA) (peptide)
peptide: RGSVITSA
B4: VGLL4-L (residues 156-171) (peptide, UniProt Q14135 156-171, looked up)
peptide: ERQQNRPSVITCASAG
B5: IRF2-L (residues 325-343) (peptide, UniProt P14316 325-343, looked up)
peptide: RPDRETRASVIKKTSDITQ
B6: ZBTB16-L (residues 279-298) (peptide, UniProt Q05516 279-298, looked up)
peptide: GPGTPTRSSVITSARELHYG
B7: IRF2 peptide (residues 331-338, RASVIKKT) (peptide)
peptide: RASVIKKT

The binders below were run against T1, RING domain of IRF2BP2 (residues …) (assay: ITC).

First: B1
Second: B2
The Kd of the first is 41-fold higher: 514 µM for the first, 12.6 µM for the second. The second binds more tightly here.

Going from B3 to B6, the Kd falls from 16.8 µM to 7.21 µM (2.3-fold).

With B7 the Kd was 6.45 µM.

Going from B4 to B5, the “fold increase of binding affinity (KD) over the shorter peptide” value rises from 2.1 fold to 3.9 fold.
